Test results published in paper PMC8440396 (Nature cell biology, 2021).

T1: Flag-TRIM15 (human, UniProt Q9C019 1-465)
T1 sequence: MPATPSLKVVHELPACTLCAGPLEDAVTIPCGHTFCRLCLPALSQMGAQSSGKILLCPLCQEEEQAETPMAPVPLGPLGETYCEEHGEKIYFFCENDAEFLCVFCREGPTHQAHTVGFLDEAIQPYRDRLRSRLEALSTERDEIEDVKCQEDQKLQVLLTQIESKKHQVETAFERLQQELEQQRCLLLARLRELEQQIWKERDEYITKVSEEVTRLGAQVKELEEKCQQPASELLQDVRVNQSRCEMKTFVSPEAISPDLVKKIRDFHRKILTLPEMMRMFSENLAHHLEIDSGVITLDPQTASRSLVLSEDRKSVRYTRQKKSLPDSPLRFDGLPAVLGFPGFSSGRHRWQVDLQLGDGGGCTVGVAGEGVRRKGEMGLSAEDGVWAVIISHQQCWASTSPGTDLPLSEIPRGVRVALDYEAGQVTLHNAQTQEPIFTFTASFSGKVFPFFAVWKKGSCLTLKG

T2: Flag-CYLD (human, UniProt Q9NQC7 1-956)
T2 sequence: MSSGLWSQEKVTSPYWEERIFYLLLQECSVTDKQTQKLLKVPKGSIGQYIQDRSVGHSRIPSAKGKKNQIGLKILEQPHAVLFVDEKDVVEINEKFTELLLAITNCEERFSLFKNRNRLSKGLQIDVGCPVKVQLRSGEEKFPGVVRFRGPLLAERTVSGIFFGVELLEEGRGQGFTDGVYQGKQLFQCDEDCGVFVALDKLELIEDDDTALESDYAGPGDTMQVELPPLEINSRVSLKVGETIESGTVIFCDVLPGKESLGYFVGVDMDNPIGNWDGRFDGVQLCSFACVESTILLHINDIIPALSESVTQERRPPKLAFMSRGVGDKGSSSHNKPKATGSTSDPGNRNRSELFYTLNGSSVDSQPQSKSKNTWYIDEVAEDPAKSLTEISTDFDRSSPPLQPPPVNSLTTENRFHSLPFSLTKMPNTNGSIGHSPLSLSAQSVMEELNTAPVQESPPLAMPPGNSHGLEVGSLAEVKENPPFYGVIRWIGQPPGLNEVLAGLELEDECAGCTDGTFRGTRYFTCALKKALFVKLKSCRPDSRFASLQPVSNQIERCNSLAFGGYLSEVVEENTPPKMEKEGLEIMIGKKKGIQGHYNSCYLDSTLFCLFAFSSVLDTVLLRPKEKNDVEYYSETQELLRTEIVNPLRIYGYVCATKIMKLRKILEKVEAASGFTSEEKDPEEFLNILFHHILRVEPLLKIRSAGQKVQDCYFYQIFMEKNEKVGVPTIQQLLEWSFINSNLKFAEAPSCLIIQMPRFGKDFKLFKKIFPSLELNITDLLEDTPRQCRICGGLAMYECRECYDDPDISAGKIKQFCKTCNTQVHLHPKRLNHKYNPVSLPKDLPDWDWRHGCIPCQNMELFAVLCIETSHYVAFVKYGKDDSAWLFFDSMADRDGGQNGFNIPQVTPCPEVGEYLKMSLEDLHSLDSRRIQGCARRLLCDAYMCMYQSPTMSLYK

T3: Flag-CYLD^4A (K767A/K768A/L773A/L775A) (human, UniProt Q9NQC7 1-956, K767A | K768A | L773A | L775A)
T3 sequence: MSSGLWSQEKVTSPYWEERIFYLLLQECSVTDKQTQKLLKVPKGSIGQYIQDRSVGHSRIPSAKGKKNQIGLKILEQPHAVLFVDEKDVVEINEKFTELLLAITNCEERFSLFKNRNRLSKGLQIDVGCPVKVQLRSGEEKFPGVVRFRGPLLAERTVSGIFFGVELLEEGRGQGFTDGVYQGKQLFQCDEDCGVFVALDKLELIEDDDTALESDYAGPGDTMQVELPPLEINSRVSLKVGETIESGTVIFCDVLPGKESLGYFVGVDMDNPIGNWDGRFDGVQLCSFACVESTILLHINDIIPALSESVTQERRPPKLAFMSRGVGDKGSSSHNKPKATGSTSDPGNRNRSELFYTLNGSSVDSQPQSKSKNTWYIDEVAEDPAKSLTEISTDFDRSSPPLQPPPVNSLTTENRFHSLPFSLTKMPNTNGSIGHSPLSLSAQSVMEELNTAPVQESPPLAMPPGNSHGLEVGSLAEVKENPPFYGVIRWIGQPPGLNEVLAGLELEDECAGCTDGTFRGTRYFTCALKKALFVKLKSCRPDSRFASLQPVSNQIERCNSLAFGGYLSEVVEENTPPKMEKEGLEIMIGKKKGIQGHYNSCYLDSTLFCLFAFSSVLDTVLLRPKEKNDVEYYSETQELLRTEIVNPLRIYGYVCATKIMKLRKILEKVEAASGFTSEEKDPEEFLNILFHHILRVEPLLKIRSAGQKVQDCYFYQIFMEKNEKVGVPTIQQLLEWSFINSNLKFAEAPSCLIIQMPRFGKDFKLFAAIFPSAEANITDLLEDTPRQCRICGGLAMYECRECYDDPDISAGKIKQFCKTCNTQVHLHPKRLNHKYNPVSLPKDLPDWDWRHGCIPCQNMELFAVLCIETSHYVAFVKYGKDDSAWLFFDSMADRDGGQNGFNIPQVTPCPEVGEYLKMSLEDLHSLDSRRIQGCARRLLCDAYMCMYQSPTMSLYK


Columns and labels:
Test in all cases: pull-down
Flag-TRIM15 = target: T1, Flag-TRIM15
Flag-CYLD = target: T2, Flag-CYLD
[1] = target: T3, Flag-CYLD^4A (K767A/K768A/L773A/L775A)
Flag-ERK1 = Flag-ERK1 (human, UniProt P27361 1-379)
Flag-ERK1^K302R = Flag-ERK1^K302R (human, UniProt P27361 1-379, K302R)

Binder | binding result (Flag-TRIM15) | binding result (Flag-CYLD) | binding result [1] | binding result (Flag-ERK1) | binding result (Flag-ERK1^K302R)
GST-ERK1 (enzyme) MAAAAAQGGGGGEPRRTEGVGPGVPGEVEMVKGQPFDVGPRYTQLQYIGEGAYGMVSSAYDHVRKTRVAIKKISPFEHQTYCQRTLREIQILLRFRHENVIGIRDILRASTLEAMRDVYIVQDLMETDLYKLLKSQQLSNDHICYFLYQILRGLKYIHSANVLHRDLKPSNLLINTTCDLKICDFGLARIADPEHDHTGFLTEYVATRWYRAPEIMLNSKGYTKSIDIWSVGCILAEMLSNRPIFPGKHYLDQLNHILGILGSPSQEDLNCIINMKARNYLQSLPSKTKVAWAKLFPKSDSKALDLLDRMLTFNPNKRITVEEALAHPYLEQYYDPTDEPVAEEPFTFAMELDDLPKERLKELIFQETARFQPGVLEAP | binds | binds | binds | – | –
GST-ELK-1 (aa 307-428) (domain or fragment) ISQPQKGRKPRDLELPLSPSLLGGPGPERTPGSGSGSGLQAPGPALTPSLLPTHTLTPVLLTPSSLPPSIHFWSTLSPIAPRSPAKLSFQFPSSGSAQVHIPSISVDGLSTPVVLSPGPQKP | – | – | – | binds | binds
